Data as given in doi:10.1101/2022.09.07.506877.

Target: Sb-gRAMP (type III-E CRISPR effector, Cas7-11);TPR-CHAT (caspase-like peptidase) (Candidatus "Scalindua …, UniProt A0A0B0EGF3;A0A0B0EKL4 1-1717;1-716, |)
Assay: cryo-EM structure

B1: crRNA (37 nt) / target ssRNA (18 nt as modelled) (structured_RNA)
RNA 1: GGACUUAAUGUCACGGUACCCAAUUUUCUGCCCCGGA
RNA 2: UCCGGGGCAGAAAAUUGG
  binding result: binds
